Laboratory results published in IntAct's records for PubMed 20477991.

B1: Phospholipid-transporting ATPase NEO1 (Saccharomyces cerevisiae), P40527 (parent)
chain: MPNPPSFKSHKQNLFNSNNNQHANSVDSFDLHLDDSFDAALDSLQINNNPEPLSKHNTVGDRESFEMRTVDDLDNFSNHSSDSHRKSSNTDTHPLMYDNRLSQDDNFKFTNIASSPPSSSNNIFSKALSYLKVSNTKNWSKFGSPIELSDQHIEREIHPDTTPVYDRNRYVSNELSNAKYNAVTFVPTLLYEQFKFFYNLYFLVVALSQAVPALRIGYLSSYIVPLAFVLTVTMAKEAIDDIQRRRRDRESNNELYHVITRNRSIPSKDLKVGDLIKVHKGDRIPADLVLLQSSEPSGESFIKTDQLDGETDWKLRVACPLTQNLSENDLINRISITASAPEKSIHKFLGKVTYKDSTSNPLSVDNTLWANTVLASSGFCIACVVYTGRDTRQAMNTTTAKVKTGLLELEINSISKILCACVFALSILLVAFAGFHNDDWYIDILRYLILFSTIIPVSLRVNLDLAKSVYAHQIEHDKTIPETIVRTSTIPEDLGRIEYLLSDKTGTLTQNDMQLKKIHLGTVSYTSETLDIVSDYVQSLVSSKNDSLNNSKVALSTTRKDMSFRVRDMILTLAICHNVTPTFEDDELTYQAASPDEIAIVKFTESVGLSLFKRDRHSISLLHEHSGKTLNYEILQVFPFNSDSKRMGIIVRDEQLDEYWFMQKGADTVMSKIVESNDWLEEETGNMAREGLRTLVIGRKKLNKKIYEQFQKEYNDASLSMLNRDQQMSQVITKYLEHDLELLGLTGVEDKLQKDVKSSIELLRNAGIKIWMLTGDKVETARCVSISAKLISRGQYVHTITKVTRPEGAFNQLEYLKINRNACLLIDGESLGMFLKHYEQEFFDVVVHLPTVIACRCTPQQKADVALVIRKMTGKRVCCIGDGGNDVSMIQCADVGVGIVGKEGKQASLAADFSITQFCHLTELLLWHGRNSYKRSAKLAQFVMHRGLIIAICQAVYSICSLFEPIALYQGWLMVGYATCYTMAPVFSLTLDHDIEESLTKIYPELYKELTEGKSLSYKTFFVWVLLSLFQGSVIQLFSQAFTSLLDTDFTRMVAISFTALVVNELIMVALEIYTWNKTMLVTEIATLLFYIVSVPFLGDYFDLGYMTTVNYYAGLLVILLISIFPVWTAKAIYRRLHPPSYAKVQEFATP

Variants of: B1
Settings: with dop1_yeast DOP1, Q03921
Sequence of dop1_yeast DOP1, Q03921 (Q03921 whole entry): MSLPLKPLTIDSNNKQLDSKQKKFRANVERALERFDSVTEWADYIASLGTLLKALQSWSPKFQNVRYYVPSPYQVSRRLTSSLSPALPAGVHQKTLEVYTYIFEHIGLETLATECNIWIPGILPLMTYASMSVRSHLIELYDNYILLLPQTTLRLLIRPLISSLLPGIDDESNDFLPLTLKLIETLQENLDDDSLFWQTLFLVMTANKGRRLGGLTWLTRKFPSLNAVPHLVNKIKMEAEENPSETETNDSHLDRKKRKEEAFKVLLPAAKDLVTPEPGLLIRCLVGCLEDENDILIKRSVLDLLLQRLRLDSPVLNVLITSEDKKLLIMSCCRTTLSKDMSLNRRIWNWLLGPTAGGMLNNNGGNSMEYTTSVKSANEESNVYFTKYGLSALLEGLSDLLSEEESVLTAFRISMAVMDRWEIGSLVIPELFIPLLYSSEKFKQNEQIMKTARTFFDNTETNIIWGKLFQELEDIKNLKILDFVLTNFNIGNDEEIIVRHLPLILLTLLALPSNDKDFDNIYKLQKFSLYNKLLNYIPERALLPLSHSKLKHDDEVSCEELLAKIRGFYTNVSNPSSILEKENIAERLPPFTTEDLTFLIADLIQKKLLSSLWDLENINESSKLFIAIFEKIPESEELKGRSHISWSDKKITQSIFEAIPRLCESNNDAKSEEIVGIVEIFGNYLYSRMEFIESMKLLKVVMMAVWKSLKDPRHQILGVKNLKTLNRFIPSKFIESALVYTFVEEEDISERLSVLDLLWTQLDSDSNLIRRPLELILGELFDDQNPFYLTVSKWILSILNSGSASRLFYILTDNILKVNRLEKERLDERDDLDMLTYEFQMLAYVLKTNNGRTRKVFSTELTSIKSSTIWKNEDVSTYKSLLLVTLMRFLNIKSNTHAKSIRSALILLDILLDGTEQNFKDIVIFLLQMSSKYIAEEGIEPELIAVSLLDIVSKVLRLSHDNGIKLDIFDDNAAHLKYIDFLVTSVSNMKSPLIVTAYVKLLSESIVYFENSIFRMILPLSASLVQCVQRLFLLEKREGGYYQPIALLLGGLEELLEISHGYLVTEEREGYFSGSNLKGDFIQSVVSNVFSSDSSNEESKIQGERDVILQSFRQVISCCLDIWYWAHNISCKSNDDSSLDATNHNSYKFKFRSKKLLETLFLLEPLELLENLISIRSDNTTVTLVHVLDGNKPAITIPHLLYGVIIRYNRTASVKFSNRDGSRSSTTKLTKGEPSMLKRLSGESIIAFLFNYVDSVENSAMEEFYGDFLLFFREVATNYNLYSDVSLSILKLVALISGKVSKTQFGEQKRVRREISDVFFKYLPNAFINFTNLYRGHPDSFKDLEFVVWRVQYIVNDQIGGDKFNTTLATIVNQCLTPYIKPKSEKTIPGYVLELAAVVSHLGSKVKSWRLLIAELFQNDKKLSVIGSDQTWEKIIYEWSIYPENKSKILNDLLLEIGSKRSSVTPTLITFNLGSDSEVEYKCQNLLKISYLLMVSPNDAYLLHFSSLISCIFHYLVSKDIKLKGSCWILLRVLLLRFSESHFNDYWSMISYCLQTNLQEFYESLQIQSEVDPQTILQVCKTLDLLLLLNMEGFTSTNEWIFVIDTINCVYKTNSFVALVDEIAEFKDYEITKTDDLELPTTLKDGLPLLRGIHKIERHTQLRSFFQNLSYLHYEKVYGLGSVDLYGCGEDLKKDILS

Variant	effect of a mutation on the interaction
F301S;D305G;V373A;S539P;L540P;N631S;Q655R;V748A	decreasing interaction strength
I284T;I449M;E605G;L680P;Y714H	with no effect
